Measured values taken from patent US20230183319A1.

How the values were obtained:
Assay in all cases: cell-based or functional assay
GDF11 = molecular target: T1, GDF11 (UniProt O95390)
T1 sequence (looked up): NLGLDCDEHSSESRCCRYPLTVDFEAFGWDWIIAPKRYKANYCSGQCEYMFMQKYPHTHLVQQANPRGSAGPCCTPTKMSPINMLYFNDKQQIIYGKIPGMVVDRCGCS

BMP9 = molecular target: T2, BMP9 (UniProt Q9UK05)
T2 sequence (looked up): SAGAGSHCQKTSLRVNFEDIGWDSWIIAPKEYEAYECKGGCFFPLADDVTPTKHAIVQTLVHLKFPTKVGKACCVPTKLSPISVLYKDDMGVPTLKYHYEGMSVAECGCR

activin A = molecular target: T3, activin A (UniProt P08476)
T3 sequence (looked up): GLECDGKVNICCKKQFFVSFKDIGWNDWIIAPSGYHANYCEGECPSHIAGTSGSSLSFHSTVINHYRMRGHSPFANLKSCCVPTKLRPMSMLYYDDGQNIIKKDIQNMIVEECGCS

BMP10 = molecular target: T4, BMP10 (UniProt O95393)
T4 sequence (looked up): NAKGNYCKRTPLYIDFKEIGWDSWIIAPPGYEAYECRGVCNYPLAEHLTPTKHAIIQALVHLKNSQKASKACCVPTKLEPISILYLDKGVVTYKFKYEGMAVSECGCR

activin B = molecular target: T5, activin B (UniProt P09529)
T5 sequence (looked up): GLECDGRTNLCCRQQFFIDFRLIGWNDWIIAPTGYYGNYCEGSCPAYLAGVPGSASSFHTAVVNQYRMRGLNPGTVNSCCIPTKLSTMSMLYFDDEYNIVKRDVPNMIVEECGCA

GDF8 = molecular target: T6, GDF8 (UniProt O14793)
T6 sequence (looked up): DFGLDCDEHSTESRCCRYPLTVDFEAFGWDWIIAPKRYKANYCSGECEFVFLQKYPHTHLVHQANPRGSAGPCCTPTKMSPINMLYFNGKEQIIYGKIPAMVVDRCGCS

ActRIIB-G1Fc (SEQ ID NO: 5) (Fc fusion), sequence (chain): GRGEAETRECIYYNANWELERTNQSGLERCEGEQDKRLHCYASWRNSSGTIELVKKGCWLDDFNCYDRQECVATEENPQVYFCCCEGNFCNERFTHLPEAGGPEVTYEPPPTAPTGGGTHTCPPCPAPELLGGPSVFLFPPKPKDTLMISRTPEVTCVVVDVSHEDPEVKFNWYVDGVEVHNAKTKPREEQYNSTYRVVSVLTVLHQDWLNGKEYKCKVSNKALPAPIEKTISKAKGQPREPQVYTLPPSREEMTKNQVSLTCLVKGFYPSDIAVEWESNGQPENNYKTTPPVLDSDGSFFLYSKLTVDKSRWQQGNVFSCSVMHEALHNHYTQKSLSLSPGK

Substance	IC50 (ng/mL); A204 CAGA12 luciferase reporter (GDF11)	IC50 (ng/mL); A204 CAGA12 luciferase reporter (BMP9)	IC50 (ng/mL); A204 CAGA12 luciferase reporter (activin A)	further results
ActRIIB-Fc R40A (Fc fusion)	591 ng/mL	1210 ng/mL	–	–
ActRIIB(L79K)-G1Fc (Fc fusion)	477 ng/mL	–	–	–
ActRIIB-Fc K74R (Fc fusion)	45 ng/mL	165 ng/mL	–	–
ActRIIB-Fc K55D (Fc fusion)	365 ng/mL	5500 ng/mL	396 ng/mL	–
ActRIIB-G1Fc (SEQ ID NO: 5) (Fc fusion)	9 ng/mL	31 ng/mL	8 ng/mL	IC50 (nM); A204 CAGA12 luciferase reporter (activin A): 0.05 nM; IC50 (nM); A204 CAGA12 luciferase reporter (GDF11): 0.12 nM; IC50 (nM); A204 CAGA12 luciferase reporter (BMP10): 0.036 nM; IC50 (nM); A204 CAGA12 luciferase reporter (BMP9): 1.82 nM; IC50 (nM); A204 CAGA12 luciferase reporter (activin B): 0.067 nM; IC50 (nM); A204 CAGA12 luciferase reporter (GDF8): 0.95 nM
ActRIIB-Fc L79R (Fc fusion)	234 ng/mL	–	–	–
ActRIIB-Fc E50P (Fc fusion)	638 ng/mL	3000 ng/mL	756 ng/mL	–
ActRIIB-Fc F82W (Fc fusion)	276 ng/mL	–	–	–
ActRIIB-Fc E50K (Fc fusion)	180 ng/mL	721 ng/mL	132 ng/mL	–
ActRIIB-Fc Y60K (Fc fusion)	414 ng/mL	–	–	–
ActRIIB-Fc K55R (Fc fusion)	318 ng/mL	777 ng/mL	206 ng/mL	–
ActRIIB-Fc E52K (Fc fusion)	296 ng/mL	10000 ng/mL	762 ng/mL	–
ActRIIB(F82T)-G1Fc (Fc fusion)	–	–	–	IC50 (nM); A204 CAGA12 luciferase reporter (activin A): 0.1 nM; IC50 (nM); A204 CAGA12 luciferase reporter (GDF11): 0.27 nM; IC50 (nM); A204 CAGA12 luciferase reporter (BMP10): 0.07 nM; IC50 (nM); A204 CAGA12 luciferase reporter (activin B): 0.09 nM; IC50 (nM); A204 CAGA12 luciferase reporter (GDF8): 2.17 nM
ActRIIB-Fc E52A (Fc fusion)	71 ng/mL	359 ng/mL	198 ng/mL	–
ActRIIB-Fc Y60P (Fc fusion)	544 ng/mL	–	–	–
ActRIIB-Fc A24N (Fc fusion)	99 ng/mL	409 ng/mL	128 ng/mL	–
ActRIIB(F82W, N83A)-G1Fc (Fc fusion)	389 ng/mL	40000 ng/mL	–	–
